{
  "source": "patent US20130156779A1",
  "about": "(GlaxoSmithKline, published 2013)",
  "binders": {"B1": {"name": "Murine 15D5 antibody (M5.15D5.2A1.1H10) (antibody, IgG1, V domains shown)", "VH": "EFQLQQSGPELVKPGASVKISCKASGYSFTDYNMNWVKQNNGKSLEWIGGINPNYGTTVYNQKFKGKATLTVDQSSSTAYMQLVSLTSEDSAVYYCARMTTIVPFDYWGQGTTLTVSS", "VL": "DIQMTQTTFSLSASLGDRVTISCRASQDISNYLNWYQQKPDGTVKLLIYYTSTLHSGVPSRFSGSGSGTDYFLTIRNLEEEDIATYFCQQGYTLPWTFGGGTKLDIK", "notes": "Mouse monoclonal, IgG1; also called m15D5; M5.15D5.1C1"}},
  "key": {"Human HER3 receptor [1]": {"molecular_target": "T1, Human HER3 receptor (human, UniProt P21860 20-1342)", "T1 sequence (P21860 20-1342 limits assumed)": "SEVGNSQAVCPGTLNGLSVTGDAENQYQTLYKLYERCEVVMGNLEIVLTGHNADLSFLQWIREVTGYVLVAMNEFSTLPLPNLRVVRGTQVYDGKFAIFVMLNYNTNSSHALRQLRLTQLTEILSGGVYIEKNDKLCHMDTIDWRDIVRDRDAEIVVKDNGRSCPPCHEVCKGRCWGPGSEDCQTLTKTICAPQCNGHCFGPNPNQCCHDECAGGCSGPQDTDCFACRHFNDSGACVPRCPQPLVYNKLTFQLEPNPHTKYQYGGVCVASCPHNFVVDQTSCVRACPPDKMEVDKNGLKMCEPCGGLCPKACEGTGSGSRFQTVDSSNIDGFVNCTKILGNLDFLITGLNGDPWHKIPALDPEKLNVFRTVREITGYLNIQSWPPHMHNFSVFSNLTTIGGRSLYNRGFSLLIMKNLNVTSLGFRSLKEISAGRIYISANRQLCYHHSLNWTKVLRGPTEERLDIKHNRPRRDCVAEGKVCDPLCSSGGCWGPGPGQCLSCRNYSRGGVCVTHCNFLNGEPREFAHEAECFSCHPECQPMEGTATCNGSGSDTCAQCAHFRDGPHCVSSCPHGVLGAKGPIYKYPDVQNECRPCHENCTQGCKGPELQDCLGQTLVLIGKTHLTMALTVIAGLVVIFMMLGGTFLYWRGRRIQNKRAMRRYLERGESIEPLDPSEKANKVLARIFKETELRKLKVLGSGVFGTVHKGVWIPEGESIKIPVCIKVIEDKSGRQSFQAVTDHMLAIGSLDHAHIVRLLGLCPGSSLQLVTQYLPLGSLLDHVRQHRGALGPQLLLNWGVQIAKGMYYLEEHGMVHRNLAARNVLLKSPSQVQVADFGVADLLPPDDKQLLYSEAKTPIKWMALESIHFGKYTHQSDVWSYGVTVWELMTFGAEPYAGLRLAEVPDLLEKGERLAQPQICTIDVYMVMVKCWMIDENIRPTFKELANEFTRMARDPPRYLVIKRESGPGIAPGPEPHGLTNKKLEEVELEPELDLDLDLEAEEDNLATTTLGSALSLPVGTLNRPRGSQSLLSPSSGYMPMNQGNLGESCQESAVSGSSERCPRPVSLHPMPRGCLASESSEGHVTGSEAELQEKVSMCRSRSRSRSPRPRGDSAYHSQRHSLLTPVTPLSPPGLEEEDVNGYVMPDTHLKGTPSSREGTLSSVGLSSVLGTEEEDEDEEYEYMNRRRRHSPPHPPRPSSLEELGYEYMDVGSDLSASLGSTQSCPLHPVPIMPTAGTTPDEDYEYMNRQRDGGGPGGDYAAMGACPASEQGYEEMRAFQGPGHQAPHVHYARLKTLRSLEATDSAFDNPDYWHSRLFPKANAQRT", "assay": "cell-based or functional assay"}, "Human HER3 ECD domain I": {"molecular_target": "T2, Human HER3 ECD domain I (human, UniProt P21860 20-183)", "T2 construct": "also called D1; sub-domain 1", "T2 sequence (P21860 20-183)": "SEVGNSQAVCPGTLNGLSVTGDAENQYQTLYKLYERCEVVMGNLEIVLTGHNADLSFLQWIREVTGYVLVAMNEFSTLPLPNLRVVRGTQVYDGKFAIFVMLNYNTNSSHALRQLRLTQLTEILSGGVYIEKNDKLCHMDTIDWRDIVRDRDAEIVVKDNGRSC", "assay": "DELFIA, plate coated with HER3 Domain I 1ug/ml", "description": "(§1) Dissociation Enhanced Lanthanide Fluorescence Immunoassay (DELFIA) for detection of the anti-HER3 antibodies to HER3 extracellular domain (ECD) was used. The DELFIA procedures were as follows: white Maxisorp 96-well plates (Nunc #437796) were coated with 100 ul/well of 1 ug/ml HER-3 ECD full length or HER3Domain I, II, III and IV in 0.1M carbonate buffer pH 9.5 overnight at 4° C. These plates were blocked with casein in TBS (Thermo Scientific #37532 lot#JD121074). The neat hybridoma supernatant, or the purified anti-HER3 antibodies diluted in Perkin Elmer #4002-0010 Assay Buffer from 10 ug/ml (or 100 ug/ml) to 0.01 ug/ml, or the PK serum samples with a minimum of 3 dilutions (100 ul/well) were added to the plate. These samples were incubated for 2 hours at room temperature while on a plate shaker or overnight at 4° C. […] The plate was washed 4 times with tris-buffer plus 0.05% tween-20 (Perkin Elmer #4010-0010) on a BIOTEK™ plate washer following each antibody incubation step. 100 ul/well of DELFIA enhancement solution (Perkin Elmer 1244-105) was added for 5 minutes at room temperature. […] Antibody binding was recorded as europium counts per well."}, "Human HER3 receptor [2]": {"molecular_target": "T1, Human HER3 receptor", "assay": "cell-based or functional assay", "remark": "listed apart in the source"}, "[3]": {"molecular_target": "T3, Human HER3 ECD domain III (human, UniProt P21860 330-495)", "T3 construct": "also called D3; Domain 3", "T3 sequence (P21860 330-495)": "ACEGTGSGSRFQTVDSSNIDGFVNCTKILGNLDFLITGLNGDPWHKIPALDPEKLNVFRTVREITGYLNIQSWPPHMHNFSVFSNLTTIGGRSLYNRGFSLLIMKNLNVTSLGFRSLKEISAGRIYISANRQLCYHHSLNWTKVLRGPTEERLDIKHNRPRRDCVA", "assay": "DELFIA, plate coated with HER3 Domain III 1ug/ml", "description": "as §1"}, "Human HER3 ECD domain II [4]": {"molecular_target": "T4, Human HER3 ECD domain II (human, UniProt P21860 184-329)", "T4 construct": "also called D2; Domain 2", "T4 sequence (P21860 184-329)": "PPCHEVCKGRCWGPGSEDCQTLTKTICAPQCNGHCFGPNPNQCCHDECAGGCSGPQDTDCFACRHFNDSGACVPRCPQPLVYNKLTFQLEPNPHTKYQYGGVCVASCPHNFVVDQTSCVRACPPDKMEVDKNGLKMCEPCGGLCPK", "assay": "DELFIA (europium time-resolved fluorescence), plate coated with HER3 Domain II 1ug/ml, antibody titrated 0.001-10 ug/ml"}, "Human HER3 receptor [5]": {"molecular_target": "T1, Human HER3 receptor", "assay": "cell-based or functional assay", "remark": "listed apart in the source"}, "[6]": {"molecular_target": "T5, Human HER3 ECD domain 1-2 protein (human, UniProt P21860 20-329)", "T5 construct": "also called D1-2; sub-domains 1-2", "T5 sequence (P21860 20-329)": "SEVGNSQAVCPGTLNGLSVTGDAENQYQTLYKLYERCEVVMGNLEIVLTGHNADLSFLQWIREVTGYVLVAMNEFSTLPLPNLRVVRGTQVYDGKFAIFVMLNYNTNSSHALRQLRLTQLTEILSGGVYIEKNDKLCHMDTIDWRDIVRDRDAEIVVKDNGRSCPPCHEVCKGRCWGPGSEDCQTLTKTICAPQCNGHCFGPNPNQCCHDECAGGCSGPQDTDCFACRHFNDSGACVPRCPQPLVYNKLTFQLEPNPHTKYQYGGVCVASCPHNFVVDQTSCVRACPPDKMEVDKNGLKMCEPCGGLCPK", "assay": "BIACORE 2000 SPR, mAb captured, HER3 protein as analyte, 25 C"}, "[7]": {"molecular_target": "T6, Full-length human HER3 extracellular domain (ECD) (human, UniProt P21860 20-643)", "T6 construct": "also called human HER3 ECD; HER-3 ECD full length", "T6 sequence (P21860 20-643)": "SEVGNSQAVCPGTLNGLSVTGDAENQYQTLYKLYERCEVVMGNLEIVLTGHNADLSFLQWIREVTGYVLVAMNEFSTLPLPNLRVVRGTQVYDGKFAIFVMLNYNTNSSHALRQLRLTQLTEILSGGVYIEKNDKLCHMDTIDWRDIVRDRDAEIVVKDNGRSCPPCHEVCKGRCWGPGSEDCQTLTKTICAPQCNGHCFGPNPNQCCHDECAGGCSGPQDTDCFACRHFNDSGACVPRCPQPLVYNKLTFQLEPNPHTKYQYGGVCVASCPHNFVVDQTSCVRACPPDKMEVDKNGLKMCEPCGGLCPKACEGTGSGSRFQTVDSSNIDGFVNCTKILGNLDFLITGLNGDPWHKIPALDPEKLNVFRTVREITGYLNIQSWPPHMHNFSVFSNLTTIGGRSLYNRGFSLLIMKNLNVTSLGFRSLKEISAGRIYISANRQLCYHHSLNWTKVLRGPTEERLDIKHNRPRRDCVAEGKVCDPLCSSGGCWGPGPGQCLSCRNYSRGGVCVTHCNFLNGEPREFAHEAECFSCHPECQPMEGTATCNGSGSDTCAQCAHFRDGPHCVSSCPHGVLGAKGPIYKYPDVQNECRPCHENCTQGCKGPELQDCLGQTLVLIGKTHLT", "assay": "BIACORE 2000 SPR, mAb captured, HER3 protein as analyte, 25 C"}, "[8]": {"molecular_target": "T7, Human HER3 ECD domain 2-3 protein (human, UniProt P21860 184-495)", "T7 construct": "also called D2-3; sub-domains 2-3", "T7 sequence (P21860 184-495)": "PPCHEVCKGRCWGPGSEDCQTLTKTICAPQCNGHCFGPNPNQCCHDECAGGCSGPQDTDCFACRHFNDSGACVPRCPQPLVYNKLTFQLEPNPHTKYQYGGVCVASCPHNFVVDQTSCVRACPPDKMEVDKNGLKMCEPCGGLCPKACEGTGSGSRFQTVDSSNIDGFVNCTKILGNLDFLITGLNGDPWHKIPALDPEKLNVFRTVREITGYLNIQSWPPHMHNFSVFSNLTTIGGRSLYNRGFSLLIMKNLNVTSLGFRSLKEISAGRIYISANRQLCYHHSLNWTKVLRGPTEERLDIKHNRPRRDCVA", "assay": "BIACORE 2000 SPR, mAb captured, HER3 protein as analyte, 25 C"}, "Human HER3 ECD domain II [9]": {"molecular_target": "T4, Human HER3 ECD domain II", "assay": "BIACORE 2000 SPR, mAb captured, HER3 protein as analyte, 25 C"}, "[10]": {"molecular_target": "T6, Full-length human HER3 extracellular …", "assay": "affinity summary table, method not given"}, "Human HER3 ECD domain II [11]": {"molecular_target": "T4, Human HER3 ECD domain II", "assay": "affinity summary table, method not given"}, "[12]": {"molecular_target": "T8, Murine HER3 on B16 and B16F10 melanoma cells (murine, UniProt Q61526 20-1339)", "T8 construct": "whole, on cells", "T8 sequence (Q61526 20-1339, one chain of several)": "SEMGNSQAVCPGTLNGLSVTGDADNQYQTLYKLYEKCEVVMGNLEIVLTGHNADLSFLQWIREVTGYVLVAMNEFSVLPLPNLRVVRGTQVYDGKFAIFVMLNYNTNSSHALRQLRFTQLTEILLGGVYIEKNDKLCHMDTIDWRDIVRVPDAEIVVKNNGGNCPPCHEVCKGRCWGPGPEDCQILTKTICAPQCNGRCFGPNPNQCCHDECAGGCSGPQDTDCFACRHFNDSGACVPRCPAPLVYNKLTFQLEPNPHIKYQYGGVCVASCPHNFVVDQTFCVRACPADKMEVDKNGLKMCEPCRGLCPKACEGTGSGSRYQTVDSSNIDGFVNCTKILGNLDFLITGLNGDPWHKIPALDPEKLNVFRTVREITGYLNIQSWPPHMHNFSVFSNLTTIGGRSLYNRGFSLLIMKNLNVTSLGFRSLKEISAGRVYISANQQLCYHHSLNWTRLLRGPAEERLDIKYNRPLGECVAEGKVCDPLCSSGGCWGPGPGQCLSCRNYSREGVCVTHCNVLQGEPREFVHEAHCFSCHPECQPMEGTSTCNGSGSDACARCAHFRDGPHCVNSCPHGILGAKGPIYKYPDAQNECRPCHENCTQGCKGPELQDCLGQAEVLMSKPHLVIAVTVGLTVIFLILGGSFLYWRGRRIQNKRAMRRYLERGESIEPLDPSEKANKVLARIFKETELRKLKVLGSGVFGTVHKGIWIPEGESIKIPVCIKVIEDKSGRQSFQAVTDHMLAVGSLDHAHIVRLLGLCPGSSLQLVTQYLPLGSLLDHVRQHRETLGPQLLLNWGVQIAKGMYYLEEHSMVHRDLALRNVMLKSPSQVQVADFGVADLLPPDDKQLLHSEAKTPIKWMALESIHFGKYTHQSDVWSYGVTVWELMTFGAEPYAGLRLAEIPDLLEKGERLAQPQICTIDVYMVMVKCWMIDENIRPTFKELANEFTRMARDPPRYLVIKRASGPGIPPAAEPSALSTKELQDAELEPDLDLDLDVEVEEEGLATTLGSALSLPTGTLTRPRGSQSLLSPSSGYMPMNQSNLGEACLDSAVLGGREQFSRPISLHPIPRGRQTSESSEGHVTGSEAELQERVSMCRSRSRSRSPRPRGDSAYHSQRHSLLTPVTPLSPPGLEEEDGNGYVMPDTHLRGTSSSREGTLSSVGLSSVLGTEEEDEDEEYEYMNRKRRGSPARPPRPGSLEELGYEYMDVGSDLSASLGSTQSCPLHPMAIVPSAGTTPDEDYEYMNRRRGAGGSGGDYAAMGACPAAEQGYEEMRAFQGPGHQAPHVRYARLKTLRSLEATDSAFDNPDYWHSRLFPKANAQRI", "assay": "flow cytometry on B16F10 murine melanoma cells, antibody labelled with a Zenon APC kit [c]", "excerpt": "B16F10 ZENON™ labeling kits: [0530] Mouse IgG1 PE—Invitrogen Z25021 [0531] Mouse IgG1 APC—Invitrogen Z25051 [0532] Mouse IgG2b APC—Invitrogen Z25151 Method: Commercially available anti-human EGFR and HER2 antibodies were provided. A commercially available HER3 antibody represented by the provider to recognizes human HER3 was provided. The murine 15D5 antibody, murine 1D9 antibody (M5.1D9.1F5), murine 24H5 antibody (M5.24H5.C2) antibodies were also provided. These antibodies were labeled with either PE or APC using the ZENON™ labeling kits (Invitrogen). 5×10⁶ B 16, or B16F10, murine melanoma cells were added to flow cytometry tubes containing the labeled anti-HER3 antibodies. Cells and antibodies were incubated for 30 minutes on ice in the dark, washed and resuspended in FACS buffer. Cells were then analyzed on a FACSCANTO™ flow cytometer. Data analysis was performed using […]™ software, developed by BD Biosciences. Cell populations were gated using forward vs. side scatter and histograms of fluorescent intensities were generated."}, "Human HER3 ECD domain IV": {"molecular_target": "T9, Human HER3 ECD domain IV (human, UniProt P21860 496-643)", "T9 construct": "also called D4; sub-domain 4", "T9 sequence (P21860 496-643)": "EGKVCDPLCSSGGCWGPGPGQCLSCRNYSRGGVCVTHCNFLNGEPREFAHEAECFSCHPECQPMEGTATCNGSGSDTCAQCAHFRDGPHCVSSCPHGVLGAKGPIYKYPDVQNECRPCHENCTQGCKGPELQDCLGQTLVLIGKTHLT", "assay": "DELFIA, plate coated with HER3 Domain IV 1ug/ml", "description": "as §1"}, "Human HER3 receptor [13]": {"molecular_target": "T1, Human HER3 receptor", "assay": "cell-based or functional assay", "remark": "listed apart in the source"}},
  "note": "Like-named read-outs stand apart in the source and are kept apart here.",
  "data": [
    {"binder": "B1", "values": [
      {"measurement": "Phospho-HER3 ELISA IC50, heregulin induced, BT-474 cells", "setting": "Human HER3 receptor [1]", "result": 0.12, "unit": "µg/mL"},
      {"measurement": "Phospho-HER3 ELISA IC50, heregulin induced, BxPC3 cells", "setting": "Human HER3 receptor [1]", "result": 0.0541, "unit": "µg/mL"},
      {"measurement": "Phospho-HER3 ELISA IC50, heregulin induced, CHL-1 cells", "setting": "Human HER3 receptor [1]", "result": 0.138, "unit": "µg/mL"},
      {"measurement": "Phospho-HER3 ELISA IC50, heregulin induced, MCF7 cells", "setting": "Human HER3 receptor [1]", "result": 0.0593, "unit": "µg/mL"},
      {"measurement": "Phospho-HER3 ELISA IC50, heregulin induced, N87 cells", "setting": "Human HER3 receptor [1]", "result": 0.0533, "unit": "µg/mL"},
      {"measurement": "Phospho-HER3 ELISA IC50, heregulin induced, SK-BR-3 cells", "setting": "Human HER3 receptor [1]", "result": 0.0191, "unit": "µg/mL"},
      {"measurement": "binding result", "setting": "Human HER3 ECD domain I", "result": "no binding (tested: 10 ug/ml)"},
      {"measurement": "Phospho-AKT ELISA IC50, heregulin induced, BxPC3 cells", "setting": "Human HER3 receptor [2]", "result": 0.0605, "unit": "µg/mL"},
      {"measurement": "binding result", "setting": "[3]", "result": "no binding (tested: 10 ug/ml)"},
      {"measurement": "EC50 (read off the curve)", "setting": "Human HER3 ECD domain II [4]", "result": "~0.2", "unit": "µg/mL"},
      {"measurement": "Phospho-HER3 … IC50, heregulin induced, CHO EGFR + HER3", "setting": "Human HER3 receptor [5]", "result": 0.103, "unit": "µg/mL"},
      {"measurement": "Phospho-HER3 … IC50, heregulin induced, CHO HER4 + HER3", "setting": "Human HER3 receptor [5]", "result": 0.141, "unit": "µg/mL"},
      {"measurement": "Kd", "setting": "[6]", "result": 0.17, "unit": "nM"},
      {"measurement": "kon", "setting": "[6]", "result": 345000, "unit": "M⁻¹ s⁻¹"},
      {"measurement": "Kd", "setting": "[7]", "result": 2.32, "unit": "nM"},
      {"measurement": "kon", "setting": "[7]", "result": 41200, "unit": "M⁻¹ s⁻¹"},
      {"measurement": "Kd", "setting": "[8]", "result": 0.06, "unit": "nM"},
      {"measurement": "kon", "setting": "[8]", "result": "1.4e+06", "unit": "M⁻¹ s⁻¹"},
      {"measurement": "Kd", "setting": "Human HER3 ECD domain II [9]", "result": 0.07, "unit": "nM"},
      {"measurement": "kon", "setting": "Human HER3 ECD domain II [9]", "result": "1.76e+06", "unit": "M⁻¹ s⁻¹"},
      {"measurement": "Kd", "setting": "[10]", "result": "~2", "unit": "nM"},
      {"measurement": "Kd", "setting": "Human HER3 ECD domain II [11]", "result": 0.07, "unit": "nM"},
      {"measurement": "binding result", "setting": "[12]", "result": "binds"},
      {"measurement": "binding result", "setting": "Human HER3 ECD domain IV", "result": "no binding (tested: 10 ug/ml)"},
      {"measurement": "Phospho-HER3 ELISA IC50, betacellulin induced, SK-BR-3 cells", "setting": "Human HER3 receptor [13]", "result": 0.0368, "unit": "µg/mL"},
      {"measurement": "Phospho-HER3 ELISA IC50, epidermal growth factor induced, SK-BR-3 cells", "setting": "Human HER3 receptor [13]", "result": 0.0233, "unit": "µg/mL"},
      {"measurement": "Phospho-HER3 ELISA IC50, heregulin induced, SK-BR-3 cells", "setting": "Human HER3 receptor [13]", "result": 0.0191, "unit": "µg/mL"}
    ]}
  ]
}
